Laboratory results: patent US20140056902A1 (Kyowa Kirin, published 2014)

T1: human mature dimer BMP9 recombinant protein (manufactured by R&D systems, Cat#3209-BP) (human, UniProt Q9UK05 320-429)
T1 construct: Bought protein; also called human BMP9; human BMP9 recombinant protein (manufactured by R&D systems)
T1 sequence: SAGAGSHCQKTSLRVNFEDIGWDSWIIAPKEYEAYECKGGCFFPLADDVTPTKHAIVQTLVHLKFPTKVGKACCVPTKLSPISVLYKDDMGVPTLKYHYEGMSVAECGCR


target: T1, human mature dimer BMP9 recombinant …; assay: SPR (Biacore T100), antibody captured on anti-human IgG, human BMP9 (R&D 3209-BP) as analyte, 5 concentrations from 1 nM
Method: For the purpose of comparing binding activity to human BMP9 between c10D5-2-3 antibody and 22 types of 10D5-2-3 antibody-humanized antibodies obtained in Example 22-7, binding activity to human BMP9 recombinant protein (manufactured by R&D systems) was measured by surface plasmon resonance (SPR) using a BiacoreT100 instrument (manufactured by GE Healthcare bioscience).
Anti-human IgG antibody was immobilized onto a CM5 sensor chip (manufactured by GE Healthcare bioscience) using a Human Antibody Capture Kit (manufactured by GE Healthcare bioscience) in accordance with the accompanying protocol. 0.4 μg/mL of c10D5-2-3 antibody or each humanized antibody was applied to the flow cell onto which anti-human IgG antibody was immobilized, at a flow rate of 10 μL/min for 2 minutes.
Subsequently, human BMP9 recombinant protein (manufactured by R&D systems, Cat#3209-BP) was subjected to 2-fold serial dilution starting from […] to give 5 concentrations, and applied at a flow rate of 10 μL/min, and association was monitored over 3 minutes and dissociation over 3 minutes at a flow of 10 μL/min. The sensorgram thus obtained was analyzed by BiaEvaluation Software (manufactured by GE Healthcare bioscience) to calculate the rate constant of each antibody.

| Binder | Kd [pM] | koff [s⁻¹] | kon [M⁻¹ s⁻¹] |
| --- | --- | --- | --- |
| 10D5-2-3 antibody-humanized antibody HV3LV2 (antibody, V domains shown, Expressed from pKANTEX93) VH: EVQLVESGGGLVQPGGSLRLSCAASGFTFSNYWMNWVRQAPGKGLEWVAHIRLKSDNYATHYAESVRGRFTISRDDSKNSLYLQMNSLKTEDTAVYYCTGGSNYVFAFWGQGTLVTVSS VL: DIVMTQSPDSLAVSLGERATINCRASESVDNYGISFMNWFQQKPGQPPKLLIYAASNQGSGVPDRFSGSGSGTDFTLTISSLQAEDVAVYFCQQSKEVPWTFGQGTKLEIK | 11.6 | 0.000596 | 5.12e+07 |
| 10D5-2-3 antibody-humanized antibody HV3LV3 (antibody, V domains shown, Expressed from pKANTEX93) VH: EVQLVESGGGLVQPGGSLRLSCAASGFTFSNYWMNWVRQAPGKGLEWVAHIRLKSDNYATHYAESVRGRFTISRDDSKNSLYLQMNSLKTEDTAVYYCTGGSNYVFAFWGQGTLVTVSS VL: DIVMTQSPDSLAVSLGERATINCRASESVDNYGISFMNWFQQKPGQPPKLLIYAASNQGSGVPDRFSGSGSGTDFTLTISPLQAEDVAVYFCQQSKEVPWTFGQGTKLEIK | 9.49 | 0.000516 | 5.43e+07 |
| 10D5-2-3 antibody-humanized antibody HV3LV0 (antibody, V domains shown, Expressed from pKANTEX93) VH: EVQLVESGGGLVQPGGSLRLSCAASGFTFSNYWMNWVRQAPGKGLEWVAHIRLKSDNYATHYAESVRGRFTISRDDSKNSLYLQMNSLKTEDTAVYYCTGGSNYVFAFWGQGTLVTVSS VL: DIVMTQSPDSLAVSLGERATINCRASESVDNYGISFMNWYQQKPGQPPKLLIYAASNQGSGVPDRFSGSGSGTDFTLTISSLQAEDVAVYYCQQSKEVPWTFGQGTKLEIK | 11.4 | 0.00172 | 1.51e+08 |
| 10D5-2-3 antibody-humanized antibody HV4aLV0 (antibody, V domains shown, Expressed from pKANTEX93) VH: EVQLVESRGGLVQPGGSMRLSCAASGFTFSNYWMNWVRQAPGKGLEWVGHIRLKSDNYATHYAESVRGRFTISRDDSKSSLYLQMNSLKTEDTAVYYCAGGSNYVFAFWGQGTLVTVSS VL: DIVMTQSPDSLAVSLGERATINCRASESVDNYGISFMNWYQQKPGQPPKLLIYAASNQGSGVPDRFSGSGSGTDFTLTISSLQAEDVAVYYCQQSKEVPWTFGQGTKLEIK | 9.24 | 0.00145 | 1.57e+08 |
| 10D5-2-3 antibody-humanized antibody HV4bLV2 (antibody, V domains shown, Expressed from pKANTEX93) VH: EVQLVESGGGLVQPGGSLRLSCAASGFTFSNYWMNWVRQAPGKGLEWVAHIRLKSDNYATHYAESVRGRFTISRDDSKNSLYLQMNSLKTEDTAIYYCTGGSNYVFAFWGQGTLVTVSS VL: DIVMTQSPDSLAVSLGERATINCRASESVDNYGISFMNWFQQKPGQPPKLLIYAASNQGSGVPDRFSGSGSGTDFTLTISSLQAEDVAVYFCQQSKEVPWTFGQGTKLEIK | 10.9 | 0.000588 | 5.39e+07 |
| 10D5-2-3 antibody-humanized antibody HV7aLV0 (antibody, V domains shown, Expressed from pKANTEX93) VH: EVQLVESRGGLVQPGGSMRLSCAASGFTFSNYWMNWVRQAPGKGLEWVAHIRLKSDNYATHYAESVRGRFTISRDDSKSSLYLQMNSLKTEDTGVYYCTGGSNYVFAFWGQGTLVTVSS VL: DIVMTQSPDSLAVSLGERATINCRASESVDNYGISFMNWYQQKPGQPPKLLIYAASNQGSGVPDRFSGSGSGTDFTLTISSLQAEDVAVYYCQQSKEVPWTFGQGTKLEIK | 9.69 | 0.00142 | 1.47e+08 |
| 10D5-2-3 antibody-humanized antibody HV4bLV0 (antibody, V domains shown, Expressed from pKANTEX93) VH: EVQLVESGGGLVQPGGSLRLSCAASGFTFSNYWMNWVRQAPGKGLEWVAHIRLKSDNYATHYAESVRGRFTISRDDSKNSLYLQMNSLKTEDTAIYYCTGGSNYVFAFWGQGTLVTVSS VL: DIVMTQSPDSLAVSLGERATINCRASESVDNYGISFMNWYQQKPGQPPKLLIYAASNQGSGVPDRFSGSGSGTDFTLTISSLQAEDVAVYYCQQSKEVPWTFGQGTKLEIK | 11.4 | 0.00164 | 1.44e+08 |
| 10D5-2-3 antibody-humanized antibody HV4bLV6 (antibody, V domains shown, Expressed from pKANTEX93) VH: EVQLVESGGGLVQPGGSLRLSCAASGFTFSNYWMNWVRQAPGKGLEWVAHIRLKSDNYATHYAESVRGRFTISRDDSKNSLYLQMNSLKTEDTAIYYCTGGSNYVFAFWGQGTLVTVSS VL: not shown | 11.9 | 0.000531 | 4.46e+07 |
| 10D5-2-3 antibody-humanized antibody HV7aLV2 (antibody, V domains shown, Expressed from pKANTEX93) VH: EVQLVESRGGLVQPGGSMRLSCAASGFTFSNYWMNWVRQAPGKGLEWVAHIRLKSDNYATHYAESVRGRFTISRDDSKSSLYLQMNSLKTEDTGVYYCTGGSNYVFAFWGQGTLVTVSS VL: DIVMTQSPDSLAVSLGERATINCRASESVDNYGISFMNWFQQKPGQPPKLLIYAASNQGSGVPDRFSGSGSGTDFTLTISSLQAEDVAVYFCQQSKEVPWTFGQGTKLEIK | 9.57 | 0.000477 | 4.98e+07 |
| 10D5-2-3 antibody-humanized antibody HV3LV6 (antibody, V domains shown, Expressed from pKANTEX93) VH: EVQLVESGGGLVQPGGSLRLSCAASGFTFSNYWMNWVRQAPGKGLEWVAHIRLKSDNYATHYAESVRGRFTISRDDSKNSLYLQMNSLKTEDTAVYYCTGGSNYVFAFWGQGTLVTVSS VL: not shown | 11.9 | 0.000555 | 4.67e+07 |
| 10D5-2-3 antibody-humanized antibody HV4bLV3 (antibody, V domains shown, Expressed from pKANTEX93) VH: EVQLVESGGGLVQPGGSLRLSCAASGFTFSNYWMNWVRQAPGKGLEWVAHIRLKSDNYATHYAESVRGRFTISRDDSKNSLYLQMNSLKTEDTAIYYCTGGSNYVFAFWGQGTLVTVSS VL: DIVMTQSPDSLAVSLGERATINCRASESVDNYGISFMNWFQQKPGQPPKLLIYAASNQGSGVPDRFSGSGSGTDFTLTISPLQAEDVAVYFCQQSKEVPWTFGQGTKLEIK | 10.1 | 0.000556 | 5.5e+07 |

Results, then the binder that gave them:

| Kd [pM] | koff [s⁻¹] | kon [M⁻¹ s⁻¹] | Binder |
| --- | --- | --- | --- |
| 6.45 | 0.000859 | 1.33e+08 | 10D5-2-3 antibody-humanized antibody HV9LV0 (antibody, V domains shown, Expressed from pKANTEX93) VH: EVQLVESRGGLVQPGGSMRLSCAASGFTFSNYWMNWVRQAPGKGLEWVAHIRLKSDNYATHYAESVRGRFTISRDDSKSSVYLQMNSLKTEDTGIYYCTGGSNYVFAFWGQGTLVTVSS VL: DIVMTQSPDSLAVSLGERATINCRASESVDNYGISFMNWYQQKPGQPPKLLIYAASNQGSGVPDRFSGSGSGTDFTLTISSLQAEDVAVYYCQQSKEVPWTFGQGTKLEIK |
| 3.89 | 0.000347 | 8.91e+07 | 10D5-2-3 antibody-humanized antibody HV9LV2 (antibody, V domains shown, Expressed from pKANTEX93) VH: EVQLVESRGGLVQPGGSMRLSCAASGFTFSNYWMNWVRQAPGKGLEWVAHIRLKSDNYATHYAESVRGRFTISRDDSKSSVYLQMNSLKTEDTGIYYCTGGSNYVFAFWGQGTLVTVSS VL: DIVMTQSPDSLAVSLGERATINCRASESVDNYGISFMNWFQQKPGQPPKLLIYAASNQGSGVPDRFSGSGSGTDFTLTISSLQAEDVAVYFCQQSKEVPWTFGQGTKLEIK |
| 4.91 | 0.000307 | 6.25e+07 | 10D5-2-3 antibody-humanized antibody HV7bLV2 (antibody, V domains shown, Expressed from pKANTEX93) VH: EVQLVESRGGLVQPGGSMRLSCAASGFTFSNYWMNWVRQAPGKGLEWVAHIRLKSDNYATHYAESVRGRFTISRDDSKNSVYLQMNSLKTEDTGVYYCTGGSNYVFAFWGQGTLVTVSS VL: DIVMTQSPDSLAVSLGERATINCRASESVDNYGISFMNWFQQKPGQPPKLLIYAASNQGSGVPDRFSGSGSGTDFTLTISSLQAEDVAVYFCQQSKEVPWTFGQGTKLEIK |
| 6.38 | 0.000739 | 1.16e+08 | 10D5-2-3 antibody-humanized antibody HV9LV4 (antibody, V domains shown, Expressed from pKANTEX93) VH: EVQLVESRGGLVQPGGSMRLSCAASGFTFSNYWMNWVRQAPGKGLEWVAHIRLKSDNYATHYAESVRGRFTISRDDSKSSVYLQMNSLKTEDTGIYYCTGGSNYVFAFWGQGTLVTVSS VL: DIVLTQSPDSLAVSLGERATINCRASESVDNYGISFMNWYQQKPGQPPKLLIYAASNQGSGVPDRFSGSGSGTDFTLTISPMQAEDVAMYYCQQSKEVPWTFGQGTKLEIK |
| 3.52 | 0.000279 | 7.91e+07 | 10D5-2-3 antibody-humanized antibody HV9LV3 (antibody, V domains shown, Expressed from pKANTEX93) VH: EVQLVESRGGLVQPGGSMRLSCAASGFTFSNYWMNWVRQAPGKGLEWVAHIRLKSDNYATHYAESVRGRFTISRDDSKSSVYLQMNSLKTEDTGIYYCTGGSNYVFAFWGQGTLVTVSS VL: DIVMTQSPDSLAVSLGERATINCRASESVDNYGISFMNWFQQKPGQPPKLLIYAASNQGSGVPDRFSGSGSGTDFTLTISPLQAEDVAVYFCQQSKEVPWTFGQGTKLEIK |
| 5.13 | 0.000325 | 6.34e+07 | 10D5-2-3 antibody-humanized antibody HV9LV6 (antibody, V domains shown, Expressed from pKANTEX93) VH: EVQLVESRGGLVQPGGSMRLSCAASGFTFSNYWMNWVRQAPGKGLEWVAHIRLKSDNYATHYAESVRGRFTISRDDSKSSVYLQMNSLKTEDTGIYYCTGGSNYVFAFWGQGTLVTVSS VL: not shown |
| 4.52 | 0.00024 | 5.32e+07 | 10D5-2-3 chimeric antibody (c10D5-2-3 antibody) (antibody, V domains shown, Human chimeric antibody; The V regions were cloned into the humanized antibody expression vector pKANTEX93) VH: EVKLEESRGGLVQPGGSMKLSCVASGFTFSNYWMNWVRQSPEKGLEWVAHIRLKSDNYATHYAESVRGRFTISRDDSKSSVFLQMNNLRAEDTGIYYCTGGSNYVFAFWGQGTLVTVSA VL: not shown |
